Data as given in patent US7833979B2, “Toxin peptide therapeutic agents” (Amgen Inc., priority 2005, dated 2010).

Legend:
Kv1.3 [1] = molecular target: T1, Kv1.3 (Homo sapiens, UniProt P22001); assay: IonWorks Quattro automated (population patch clamp) electrophysiology on CHO-Kv1.3 cells; assay type: cell-based; set-up: expressed in transfected cells; settings: IonWorks planar patch clamp, average IC50, read-out: Kv1.3 IC50 by IWQ
Experimental: Assay Plate preparation for electrophysiology. […] Before experiments, each sample was thawed at room temperature and an aliquot (70 to 80 μl) was transferred to a well in a 96-well polypropylene plate. In order to prepare the Assay Plate, several dilutions were made from the pharmacokinetic serum samples to give rise to Test Solutions. Dilutions of serum samples from the pharmacokinetic study were into 10% Phosphate Buffered Saline (PBS, with Ca^2+ and Mg^2+). […] Standard inhibition curves were also prepared in the Assay Plate.
Cell preparation for electrophysiology. CHO cells stably expressing the voltage-activated K^+ channel, Kv1.3 were plated in T-175 tissue culture flasks (at a density of 5×10^6) 2 days before experimentation and allowed to grow to around 95% confluence. […] The mean K^+ current amplitude was measured between 430 and 440 ms and the data were exported to a Microsoft Excel spreadsheet. The amplitude of the K^+ current in the presence of each concentration of the Test Solution or Standard was expressed as a percentage of the K^+ current in control conditions in the same well.
Standard inhibition curves were generated for each standard in various levels of rat serum and expressed as current percent of control (POC) versus log of nM concentration. […]

[2] = tested on: T cell proliferation in human PBMCs; assay: Inhibition of T cell proliferation (3H-thymidine incorporation) following anti-CD3 and anti-CD28 stimulation of PBMCs; assay type: cell-based; settings: pre-incubation with anti-human CD32 blocking antibody
Description: Inhibition of T cell proliferation following anti-CD3 and anti-CD28 antibody stimulation of PBMCs. PBMC's were previously isolated from normal human donor Leukophoresis packs, purified by density gradient centrifugation (Ficoll Hypaque), cryopreserved in CPZ Cryopreservation Medium Complete (INCELL, MCPZF-100 plus 10% DMSO final). PBMC's were thawed (95% viability), washed, and seeded at 2×10^5 cells per well in culture medium (RPMI medium 1640; GIBCO) supplemented with 10% fetal calf serum, 100 U/ml penicillin, […] streptomycin, 2 mM L-glutamine, 100 μM non-essential amino acids, and 20 μM 2-ME) in 96-well flat-bottom tissue culture plates. Cells were pre-incubated with either anti-human CD32 (FcyRII) blocking antibody (per manufacturers instructions EASY SEP Human Biotin Selection Kit #18553, StemCell Technologies Vancouver, BC) or Fc-L10-ShK (100 nM-0.001 nM final) for 45 min. Fc-L10-ShK (100 nM-0.001 nM final) was then added to the cells containing anti-human CD32 blocking antibody while medium was added to the cells containing Fc-L10-ShK. Both sets were incubated for an additional 45 min before stimulating for 48 hr with aCD3/aCD28 (0.2 ng/ml and 100 ng/ml, respectively). Final assay volume was 200 ul. […] Cells were then harvested onto glass fiber filters and radioactivity was measured in a B-scintillation counter.

[3] = tested on: IL-2 and IFNg production from anti-CD3 and anti-CD28 stimulated human PBMCs; assay: Inhibition of T cell cytokine production following anti-CD3 and anti-CD28 antibody stimulation of PBMCs; assay type: cell-based; settings: 48 hours
Experimental: Inhibition of T cell cytokine production following Anti-CD3 and anti-CD28 antibody stimulation of PBMCs. PBMCs were previously isolated from normal human donor Leukopheresis packs, purified by density gradient centrifugation (Ficoll Hypaque), and cryopreserved using INCELL Freezing Medium. PBMCs were thawed (95% viability), washed, and seeded (in RPMI complete medium containing serum replacement, PSG) at 2×10^5 cells per well into 96-well flat bottom plates. Cells were pre-incubated with serially diluted (100 nM-0.003 nM final) ShK[1-35], Fc-L10-ShK[1-35], or Fc control for 1 hour before the addition of aCD3 and aCD28 (2.5 ng/mL and 100 ng/mL respectively) in a final assay volume of […]. Supernatants were collected after 48 hours, and analyzed using the Meso Scale Discovery (MSD) SECTOR™ Imager 6000 (Meso Scale Discovery, Gaithersbury, Md.) to measure the IL-2 and IFNg protein levels by utilizing electrochemiluminescence (ECL). […] of supernatant was added to the MSD multi-spot 96-well plates (each well containing IL-2, TNFa, and IFNg capture antibodies). The plates were sealed and incubated at room temperature on a plate shaker for 1 hour. Then […] of Ruthenium-labeled detection antibodies (1 ug/ml final of IL-2, TNFα, and IFNγ in Antibody Dilution Buffer) and […] of 2×MSD Read Buffer were added. The plates were sealed, covered with tin foil, and incubated at room temperature on a plate shaker for 1 hour. The plates were then read on the SECTOR™ Imager 6000. […] (POC=Percent Of Control of response in the absence of inhibitor).

[4] = tested on: upregulation of CD40L and IL-2R on CD4+ T cells in human whole blood; assay: Ex vivo human whole blood assay, thapsigargin-induced cell surface CD40L and IL-2R on T cells (FACS); assay type: cell-based; settings: 24 hours
[5] = molecular target: fixed HEK 293 cells overexpressing Kv1.3 (Homo sapiens, UniProt P22001); settings: whole cell immunoassay
Experimental: Parent HEK 293 cells or HEK Kv1.3 cells were plated at 3×10e4 cells/well in poly-D-Lysine coated ninety-six well plates (#35-4461; Becton-Dickinson, Bedford, Mass.). Cells were fixed with formalin (Sigma HT50-1-1 Formalin solution, diluted 1:1 with PBS/0.5% BSA before use) by removing cell growth medium, adding 0.2 ml/well formalin solution and incubating at room temperature for 25 minutes and then washing one time with 100 ul/well of PBS/0.5% BSA. Wells were blocked by addition of 0.3 ml/well of BSA blocker (50-61-00; KPL 10% BSA Diluent/Blocking Solution, diluted 1:1 with PBS; KPL, Gaithersburg, Md.) followed by incubation at room temperature, with shaking, for 3 hr. Plates were washed 2 times with 1×KP Wash Buffer (50-63-00; KPL). Samples were diluted in Dilution Buffer (PBS/0.5% Tween-20) or Dilution Buffer with 1% Male Lewis Rat Serum (RATSRM-M; Bioreclamation Inc., Hicksville, N.Y.) and 0.1 ml/well was added to blocked plates, incubating for 1 hr at room temperature with shaking. […] Absorbance was read at 450 nm on a Molecular Devices SpectroMax 340 (Sunnyvale, Calif.).
Whole cell immunoassay was performed as above with the following modifications. […] Absorbances were read at 405 nm after stopping reactions by addition of 0.1 ml/well of 1% SDS.

[6] = tested on: IL-2 and IFNg production from PMA and anti-CD3 stimulated human PBMCs; assay: Inhibition of T cell cytokine production following PMA and anti-CD3 antibody stimulation of PBMCs; assay type: cell-based; settings: 48 hr
Description: Inhibition of T cell cytokine production following PMA and anti-CD3 antibody stimulation of PBMCs. PBMC's were previously isolated from normal human donor Leukophoresis packs, purified by density gradient centrifugation (Ficoll Hypaque), cryopreserved in CPZ Cryopreservation Medium Complete (INCELL, MCPZF-100 plus 10% DMSO final). PBMC's were thawed (95% viability), washed, and seeded at 2×10^5 cells per well in culture medium (RPMI medium 1640; GIBCO) supplemented with 10% fetal calf serum, 100 U/ml penicillin, […] streptomycin 2 mM L-glutamine, 100 uM non-essential amino acids, and 20 uM 2-ME) in 96-well flat-bottom tissue culture plates. Cells were pre-incubated with serially diluted (100 nM-0.001 nM final) ShK[1-35], Fc-L10-ShK[1-35] or fc control for 90 min before stimulating for 48 hr with PMA/anti-CD3 (1 ng/ml and 50 ng/ml, respectively) in a final assay volume of 200 ul. Analysis of the assay samples was performed using the Meso Scale Discovery (MSD) SECTOR™ Imager 6000 (Meso Scale Discovery, Gaithersbury, Md.) to measure the IL-2 and IFNg protein levels by utilizing electrochemiluminescence (ECL). […] For each well, 20 ul of Ruthenium-labeled detection antibodies (1 ug/ml final in Antibody Dilution Buffer; […], TNF, IFNγ) and 130 ul of 2×MSD Read Buffer added, final volume 150 ul. […] The plates were then read on the SECTOR™ Imager 6000. […]

[7] = molecular target: HEK 293 cells overexpressing human Kv1.3 (Homo sapiens, UniProt P22001); assay: Immunohistochemistry analysis of binding to HEK 293 cells overexpressing human Kv1.3; settings: 5 ug/ml, fixed cells, confocal microscopy
Experimental: HEK 293 cells overexpressing human Kv1.3 (HEK Kv1.3) were obtained from BioFocus plc (Cambridge, UK) and maintained per manufacturer's recommendation. The parental HEK 293 cell line was used as a control. Cells were plated on Poly-D-Lysine 24 well plates (#35-4414; Becton-Dickinson, Bedford, Mass.) and allowed to grow to approximately 70% confluence. HEK KV1.3 were plated at 0.5×10e5 cells/well in 1 ml/well of medium. HEK 293 cells were plated at a density of 1.5×10e5 cells/well in 1 ml/well of medium. […] Cells were stained by incubating with 0.2 ml/well of 5 ug/ml Fc-L10-ShK[1-35] in PBS/BSA for 30′ at room temperature. Fc-L10-ShK[1-35] was aspirated and then the cells were washed one time with PBS/0.5% BSA. Detection antibody (Goat F(ab)2 anti-human IgG-phycoerythrin; Southern Biotech Associates, Birmingham, Ala.) was added to the wells at 5 ug/ml in PBS/0.5% BSA and incubated for 30′ at room temperature. Wash cells once with PBS/0.5% BSA and examine using confocal microscopy (LSM 510 Meta Confocal Microscope; Carl Zeiss AG, Germany). […] In disease settings where activated T effector memory cells have been reported to overproduce Kv1.3, this reagent can find utility in both targeting these cells and in their detection.

Kv1.3 [8] = molecular target: T1, Kv1.3; assay: Whole cell patch clamp electrophysiology on HEK293 cells stably expressing human Kv1.3; assay type: cell-based

T1 sequence (P22001 whole entry): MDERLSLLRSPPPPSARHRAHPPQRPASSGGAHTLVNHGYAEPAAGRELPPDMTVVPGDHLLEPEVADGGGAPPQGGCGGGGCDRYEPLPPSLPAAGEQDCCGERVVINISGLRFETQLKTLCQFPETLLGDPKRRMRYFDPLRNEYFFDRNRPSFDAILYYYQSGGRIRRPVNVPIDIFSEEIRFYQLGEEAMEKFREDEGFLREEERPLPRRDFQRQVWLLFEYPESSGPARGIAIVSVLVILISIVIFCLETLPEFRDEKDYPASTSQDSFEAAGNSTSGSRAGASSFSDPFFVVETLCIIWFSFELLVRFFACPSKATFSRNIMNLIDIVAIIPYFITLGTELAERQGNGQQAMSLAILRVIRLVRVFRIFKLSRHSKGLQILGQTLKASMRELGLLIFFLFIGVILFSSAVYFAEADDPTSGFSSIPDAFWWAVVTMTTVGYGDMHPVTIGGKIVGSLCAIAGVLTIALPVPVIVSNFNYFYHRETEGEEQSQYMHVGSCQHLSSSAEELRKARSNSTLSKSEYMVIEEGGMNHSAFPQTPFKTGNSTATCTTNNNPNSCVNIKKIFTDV
Sequence of HEK 293 cells overexpressing human Kv1.3 (P22001 whole entry): as above
Sequence of fixed HEK 293 cells overexpressing Kv1.3 (P22001 whole entry): as above

## E. coli-derived ShK[2-35]-L-Fc
Kv1.3 [1]
  IC50: 4.9 nM

## Fc-L10-ShK[1-35]: Fc region of human IgG1 fused in-frame via L10 linker to Kv1.3 inhibitor peptide ShK[1-35]; SEQ ID NO: 78
[2]
  Effect of pre-blocking with anti-CD32 (FcR) blocking antibody on inhibition of T cell proliferation: little effect
[3]
  Inhibition of IFNg production: nearly complete
  Inhibition of IL-2 production: nearly complete
[4]
  Thapsigargin-induced upregulation of CD40L on T cells in human whole blood: suppressed
  Thapsigargin-induced upregulation of the IL-2R on T cells in human whole blood: suppressed
[5]
  Binding response on fixed HEK 293 cells overexpressing Kv1.3: dose-dependent increase in the peptibody binding
  Binding response on untransfected HEK 293 cells: does not elicit a response from untransfected HEK 293 cells
[6]
  Inhibition of IFNγ production: potently inhibits IL-2 and IFNg production
  Inhibition of IL-2 production: potently inhibits IL-2 and IFNg production
[7]
  Binding (staining) to Kv1.3 overexpressing HEK 293 cells: binds to Kv1.3 overexpressing HEK 293 cells
  Binding (staining) to untransfected HEK 293 cells: little binding to untransfected cells
Kv1.3 [8]; HEK293 cells stably expressing human Kv1.3, mean±s.e.m., estimated, read-out: IC50, block of outward potassium current
  IC50: 0.015 ± 0.002 nM
Kv1.3 [8]; patch clamp electrophysiology
  Blockade of human Kv1.3 current (in words): potently blocked human Kv1.3
